Assay [1] addresses human CD27, full length, expressed on cells (CHO-K1.CD27, MCF-7, HEK293T, human T cells) (human) (UniProt P26842). Put plainly: cell ELISA on CHO-K1.hCD27 cells.
The target is the same in assay [2]. In words: competition cell ELISA on CHO-K1.CD27 cells; competitor recombinant CD70 fusion protein (0.5 ug/ml).
Assay [3] addresses recombinant soluble hCD27-Fc fusion protein (rhCD27/Fc chimera, R&D systems cat. no. 382-CD) (human) (UniProt P26842). In words: competition cell ELISA: rhCD27-Fc (0.5 ug/ml) preincubated with antibody, binding to CHO-K1.CD70 cells.
Assay [4] shares this target. In words: competition cell ELISA (CHO-K1.CD70 competition assay): antibody dilutions mixed with rhCD27-Fc chimera, mix put on CHO-K1.CD70 cells, bound CD27-Fc detected with anti-human Ig-HRP; blocked ligand: hCD70 on the cells.
Assay [5] deals with T1, human CD27, full length, expressed on cells (CHO-K1.CD27, MCF-7, HEK293T, human T cells) (human, UniProt P26842 20-260).
T1 construct: whole, on cells; Full length cDNA of hCD27 in pCI-neo (CHO-K1), a retroviral vector (MCF-7) or pcDNA3 (HEK293T); Also stands for native CD27 on human T cells in the functional rows; also called hCD27; CHO-K1.hCD27
T1 sequence (looked up): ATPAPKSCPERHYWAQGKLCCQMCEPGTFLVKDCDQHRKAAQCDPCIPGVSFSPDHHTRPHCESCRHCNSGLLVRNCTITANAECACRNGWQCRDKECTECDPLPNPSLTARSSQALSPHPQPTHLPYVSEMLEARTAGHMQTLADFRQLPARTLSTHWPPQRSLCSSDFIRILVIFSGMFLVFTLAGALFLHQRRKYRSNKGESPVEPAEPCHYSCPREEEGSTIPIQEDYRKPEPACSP
In words: cell ELISA on CHO-K1.hCD27 cells. The method, then: Cell-based ELISA experiments using purified hCD27 antibodies were performed to determine binding activities of hCD27 to cellularly expressed hCD27. In this cell-ELISA, all incubation steps were followed by a wash step with PEST (PBS with 0.01% Tween 20). CHO-K1.hCD27 cells were seeded (40,000 cells/well) in tissue culture plates and incubated overnight at 37° C. The next day, culture medium was removed and cells were incubated for one hour with (dilutions of) purified antibodies at 37° C. Next, cells were washed with PBST and incubated for one hour at 37° C. with 1:1,000 goat-anti-mouse IgG-HRP (Southern Biotechnology, # 1030-05). Subsequently, cells were washed 6 times with PBST and anti-hCD27 immunoreactivity was visualized with 100 μl TMB Stabilized Chromagen (Invitrogen, cat. no. SB02). Reactions were stopped with 100 μl 0.5 M […] and absorbances were read at […] and 620 nm. […] Calculated EC₅₀, representing the concentration at which 50% of the total binding signal is observed are represented in Table 1.

In assay [6] the target is T2, mouse CD27, full length, expressed on retrovirally transduced MCF-7 cells (mouse, UniProt P41272 24-250).
T2 construct: whole, on cells
T2 sequence (looked up): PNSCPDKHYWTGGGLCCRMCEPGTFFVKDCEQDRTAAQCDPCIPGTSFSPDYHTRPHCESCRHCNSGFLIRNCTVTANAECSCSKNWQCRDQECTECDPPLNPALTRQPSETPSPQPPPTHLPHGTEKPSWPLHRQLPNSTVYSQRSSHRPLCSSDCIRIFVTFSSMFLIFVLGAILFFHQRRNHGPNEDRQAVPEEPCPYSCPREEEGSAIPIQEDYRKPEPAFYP
In words: flow cytometry on MCF-7 cells transduced with mouse CD27. The method, then:
Binding of hCD27 antibodies to mouse CD27 was determined using MCF-7 breast carcinoma cells that had been retrovirally transduced to stably express the full length cDNA encoding human CD27 or mouse CD27. Empty vector-transduced cells served as a control. Binding of the antibodies was tested by flow cytometric analysis, with validated agonistic anti-hCD27 antibodies 1A4 and CLB CD27/1; and anti-mouse CD27 LG.3A10 (Gravestein et al., 1995, Int Immunol. 7:551-7) as positive controls. These commercially available anti-hCD27 antibodies, which have been reported to harbor agonistic activities, were obtained as described in Table 2.

For assay [7], the target named is T3, recombinant soluble hCD27-Fc fusion protein (rhCD27/Fc chimera, R&D systems cat. no. 382-CD) (human, UniProt P26842 21-192).
T3 construct: Bought reagent; Fc part of the bought chimera not given
T3 sequence (looked up): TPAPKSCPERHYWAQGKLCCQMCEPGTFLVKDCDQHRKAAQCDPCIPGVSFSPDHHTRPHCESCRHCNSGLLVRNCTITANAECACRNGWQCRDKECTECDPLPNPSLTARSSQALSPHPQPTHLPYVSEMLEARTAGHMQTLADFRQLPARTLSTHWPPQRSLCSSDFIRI
Put plainly: SPR (Biacore 2000), antibody amine-coupled to chip, rhCD27Fc chimera as analyte, 1:1 Langmuir fit. As for the experimental part: The binding properties of hCD27.15 antibodies were characterized in more detail using label-free surface plasma resonance using Biacore 2000 equipment. Low amounts of antibodies were coupled to a CMS sensor chip using amine coupling at pH=4.5, with Rₘₐₓ not exceeding 100 RU. This will, in combination with a high flow level (30 μl/min) yield good fits to the 1:1 Langmuir binding model. A concentration series of rhCD27Fc chimera, ranging from 0.016 nM to 1 nM, was injected for 1 minute at 30 μl/min. The dissociation was monitored for 5 minutes. The running buffer is HEPES-buffered saline with 3 mM EDTA and 0.005% P20 (HBS-EP), pH 7.4. Combination plots were made by subtraction of the signal obtained at the blank flow cell, using BIAeval 3.2. The sensor grams were fitted to a 1:1 Langmuir binding model.

The target in assay [8] is T1, human CD27, full length, expressed on …. In words: competition cell ELISA on CHO-K1.CD27 cells; competitor recombinant CD70 fusion protein (0.5 ug/ml). As for the experimental part:
The CHO-K1.CD27 assay works along the following principles: CHO-K1.CD27 cells were seeded (40,000 cells/well) in a 96-well plate and incubated overnight at 37° C. After medium removal, 50 μl recombinant mouse CD70 fusion Protein (Fc-mCD70) (0.5 μg/ml) and 50 μl of different dilutions of purified anti-hCD27 antibodies were added. […] A cDNA construct encoding this fusion protein was constructed as described by Rowley and Al-Shamkhani, 2004, J Immunol 15:172:6039-46 and used to produce Fc-mCD70 protein in 293T human embryonic kidney cells. The protein was purified by affinity chromatography on Protein A Sepharose (GE Health Care).

The target in assay [9] is T3, recombinant soluble hCD27-Fc fusion …. In words: competition cell ELISA: rhCD27-Fc (0.5 ug/ml) preincubated with antibody, binding to CHO-K1.CD70 cells. As for the experimental part:
Blocking properties of the purified antibodies were studied using two competition assays. The CHO-K1.CD70 assay works along the following principles: CHO-K1.CD70 cells were seeded in a 96 well plate at a density of 40,000 cells/well. The same amount of plates was blocked by adding 300 μl medium/well, and all plates were incubated overnight at 37° C. The following day, the medium-only containing plates were emptied by flicking the plate, and 50 μl/well rhCD27-Fc chimera (0.5 μg/ml) (R&D systems cat. no. 382-CD) was added. To these plates, 50 μl of different dilutions of purified hCD27.15 antibodies were added. After 1 hour incubation at room temperature, the 100 μl rhCD27Fc/antibody mix was transferred to the CHO-K1/CD70 plate(s) from which the medium had been removed. These plate(s) were incubated for 1 hour at room temperature and then washed 3 times with PB ST. 100 μl anti-human Ig (H+L)-HRP conjugate (1:2,500) was added to every well (Promega, cat. no. W4031) and the plates were incubated for 1 hour at 37° C. After 6 final washes with PBST TMB Stabilized Chromagen (Invitrogen, cat. no. SB02) (100 μl/well) was added and the ELISA was read out as outlined above. […] Calculated IC₅₀ values of hCD27.15 and the positive control 1A4, which represent the concentration at which half of the inhibition is observed, are presented in Table 1.

Take “anti-hCD27, clone 1A4 (Beckman Coulter, cat. no. IM2034) (antibody)”: the concentration for a half-maximal effect (EC50) in assay [1] worked out at 0.033 µg/mL. Also, the results for the IC50 in assay [2] and in assay [3] were 0.0937 µg/mL and 0.37 µg/mL, respectively.
For the molecule “anti-hCD27, clone 57703 (R&D systems, cat. no. MAB382) (antibody)”, the IC50 (read off the curve) in assay [4] was determined as 0.2 µg/mL.

B1: monoclonal antibody hCD27.15 (hybridoma hCD27.15, ATCC PTA-11008) (antibody, mouse IgG1, V domains shown)
VH: EVRLQQSGADLVKPGASVKLSCTASGFIIKATYMHWVRQRPEQGLEWIGRIDPANGETKYDPKFQVKATITADTSSSTAYLQLNSLTSDDTAVYYCARYAWYFDVWGAGTTVTVSS
VL: DIQMTQSPASLSASVGDTVTITCRASENIYSFLAWYHQKQGRSPQLLVYHAKTLAEGVPSRFSGSGSGTQFSLKINSLQAEDFGSYYCQHYYGSPLTFGAGTKLEVK
notes: Mouse antibody purified from hybridoma; VH is joined to a mouse IgG1 constant region and VL to the kappa constant region; also called hCD27.15 mAb; anti-hCD27 antibody hCD27.15
On to B1, for which, in [5], a half-maximal effect (EC50) was put at 0.686 µg/mL. The binding result in assay [6] is given as “no binding”. Moreover, in assay [7], the dissociation constant Kd turned out to be 122 nM. Further, the IC50 in assay [8] turned out to be 0.864 µg/mL; in assay [9], 1.55 µg/mL.

The record behind these values is patent US20170267771A1 (BIONOVION HOLDING B V, published 2017).
